Assay results from patent US20260078196A1 (TJ BIOPHARMA SHANGHAI, published 2026).

T1: HEK293-MUC16 (13810-14507) (human, UniProt Q8WXI7 13810-14507)
T1 construct: range 13810-14507; also called MUC16 overexpressed HEK293 cells
T1 sequence: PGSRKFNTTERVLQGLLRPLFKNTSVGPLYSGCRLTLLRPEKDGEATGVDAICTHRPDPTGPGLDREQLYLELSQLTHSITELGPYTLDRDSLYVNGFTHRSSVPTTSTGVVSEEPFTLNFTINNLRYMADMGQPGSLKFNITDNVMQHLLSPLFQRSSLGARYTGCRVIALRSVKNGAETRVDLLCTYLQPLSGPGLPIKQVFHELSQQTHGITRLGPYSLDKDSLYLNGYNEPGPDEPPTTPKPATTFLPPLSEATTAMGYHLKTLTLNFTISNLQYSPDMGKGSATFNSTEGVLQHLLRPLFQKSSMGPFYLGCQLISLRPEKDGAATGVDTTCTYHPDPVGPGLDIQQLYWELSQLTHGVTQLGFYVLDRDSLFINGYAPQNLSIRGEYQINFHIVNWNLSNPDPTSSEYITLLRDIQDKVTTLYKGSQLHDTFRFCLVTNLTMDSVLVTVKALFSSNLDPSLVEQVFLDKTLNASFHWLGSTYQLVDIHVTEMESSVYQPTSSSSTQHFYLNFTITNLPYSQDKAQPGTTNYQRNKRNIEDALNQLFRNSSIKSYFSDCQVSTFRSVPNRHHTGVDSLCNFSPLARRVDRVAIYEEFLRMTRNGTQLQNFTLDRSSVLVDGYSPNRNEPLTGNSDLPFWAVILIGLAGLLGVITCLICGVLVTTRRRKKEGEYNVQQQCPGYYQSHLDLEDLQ


Tests used:
[1] = target: T2, human MUC16 on cells (human, UniProt Q8WXI7 1-14507); test: flow cytometry (MFI GeoMean) on OVCAR3 cells, nM is the unit of the x axis Log10[Ab] (nM)
T2 construct: whole, on cells; also called huMUC16; MUC16 on OVCAR3 and SNU216 cells

[2] = target: T1, HEK293-MUC16 (13810-14507); test: flow cytometry (MFI GeoMean) on HEK293-MUC16 (13810-14507) cells; the curve lies on the Iso curve up to about 4 nM and reaches only about 8000 at 100 nM against 40000-75000 for the others; paragraph 397 says h3A5 does not bind these cells; no unit in the table, nM from the x axis
[3] = target: T2, human MUC16 on cells; test: flow cytometry (MFI GeoMean) on SNU216 cells, nM is the unit of the x axis Log10[Ab] (nM)
[4] = target: T3, 4-1BB on cells (human, UniProt Q07011 24-255); test: flow cytometry (GMFI) on HEK293T-4-1BB cells
T3 construct: Species is stated as human for section 2.2 as a whole, not for each cell line; also called HEK293 cells expressing 4-1BB; 4-1BB overexpressed HEK293 cell

[5] = target: T4, soluble recombinant human 4-1BB (human, UniProt Q07011 24-186); test: ELISA (OD450) on soluble recombinant human 4-1BB
T4 construct: ELISA antigen

[6] = target: T5, monomeric human 4-1BB (human, UniProt Q07011 24-186, limits assumed); test: SPR, monomeric human 4-1BB
T5 construct: SPR analyte/ligand

[7] = target: T5, monomeric human 4-1BB; test: SPR, measured in parallel

T5 sequence (Q07011 24-186 limits assumed): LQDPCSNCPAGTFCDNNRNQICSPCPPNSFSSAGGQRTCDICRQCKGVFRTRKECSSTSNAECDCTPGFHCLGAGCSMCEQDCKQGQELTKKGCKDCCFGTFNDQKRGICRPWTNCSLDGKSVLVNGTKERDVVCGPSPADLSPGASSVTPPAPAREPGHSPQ
T4 sequence (Q07011 24-186 limits assumed): as above
T3 sequence (Q07011 24-255): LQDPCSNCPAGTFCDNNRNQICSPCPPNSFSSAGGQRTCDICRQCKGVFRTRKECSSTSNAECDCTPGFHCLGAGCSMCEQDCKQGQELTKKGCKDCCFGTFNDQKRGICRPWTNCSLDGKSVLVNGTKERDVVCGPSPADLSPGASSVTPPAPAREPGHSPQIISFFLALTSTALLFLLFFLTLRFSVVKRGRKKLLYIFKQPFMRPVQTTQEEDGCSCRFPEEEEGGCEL

EC50 [1]	EC50 [2]	EC50 [3]	EC50 [4]	EC50 [5]	kon [6]	Kd [7]	Binder
0.799 nM	63.4 nM	0.571 nM	–	–	–	–	3A5 (antibody, human IgG1, kappa, V domains shown, Benchmark anti-MUC16 antibody; printed both as h3A5 and 3A5; also called h3A5; benchmarker 3A5) VH: EVQLVESGGGLVQPGGSLRLSCAASGYSITNDYAWNWVRQAPGKGLEWVGYISYSGYTTYNPSIKSRFTISRDTSKNTLYLQMNSLRAEDTAVYYCARWTSGLDYWGQGTLVTVSS VL: DIQMTQSPSSLSASVGDRVTITCKASDLIHNWLAWYQQKPGKAPKLLIYGATSLETGVPSRFSGSGSGTDFTLTISSLQPEDFATYYCQQYWTTPFTFGQGTKVEIKR
–	–	–	0.131 nM	0.071 nM	383000 M⁻¹ s⁻¹	4.39 nM	parental anti-4-1BB sdAb antibody conjugated with IgG1 Fc fragment (Fc fusion, also called 4-1BB sdAb-Fc; not shown: IgG1 Fc fragment) QVQLQESGGGLVQPGGSLRLSCAASGYTYSSNCMGWFRQAPGKGLEGVAVICTGGGSPSYADSVKGRFTISRDNAKNTLYLQMNSLRAEDTAVYYCAADLLRAGTPLSSYEFNYWGQGTLVTVSS
